# Measured values: PMC6715736
# Target: T1, His6-RacR (Escherichia coli JM83 (Rac prophage)) (UniProt P76062)
# T1 sequence: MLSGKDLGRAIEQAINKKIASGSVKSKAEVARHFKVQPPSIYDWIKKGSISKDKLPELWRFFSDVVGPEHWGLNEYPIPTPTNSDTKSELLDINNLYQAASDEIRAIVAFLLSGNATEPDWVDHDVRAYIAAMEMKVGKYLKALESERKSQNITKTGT
# Assay: EMSA
# Details: EMSA: 10 mM Tris-HCl pH 8.0, 1 mM EDTA, 0.1 M NaCl, 0.1 mM DTT, 5% glycerol, 10 ug/mL BSA, 50 ug/mL poly(dI-C), 28 C 40 min; 6% PAGE in 0.5x TBE
sequence,measurement,value
GGTTCATCTCGGCTCCTGCTGCGGCGGTTGTCTTCGCGGATTTTGAAATAGAGATTTGTCAGATACGTCATTACGGCAATGATGATACCCACCAGCACGCCGATAGCGTTCCACTGCTCGGGGCTGTAGGCATTCAACATGCCGTTTAGGATGCTCCCGGCTGAAGCGCCATAGGCAGCACCAGTGGTTAGTTTGTCCATGCGATACATACTCTCACCTCGCTTTGTGCGAGTGCTGTTGCT (double strand) [lysN* probe],binding,binds
